Measured values reported in patent US20140249083A1 (THERATECHNOLOGIES, published 2014).
*1 amine or outer side, *2 acyl side, *3 side chain or, on linkers, in order; H or OH if unused. Primed or numbered codes have the meaning given here. [ ]: non-standard residue; d: D form. The star is where a group is joined. βAsp = O=C(O)[C@H](CC(=O)[*:2])N[*:1]; Met(O) = CS(=O)CC[C@H](N)C(=O)O; Hexenoyl(3E) = CC/C=C/CC(=O)*; Asu′ = not defined here

T1: human GRF receptor (human, UniProt Q02643 23-423)
T1 sequence (looked up): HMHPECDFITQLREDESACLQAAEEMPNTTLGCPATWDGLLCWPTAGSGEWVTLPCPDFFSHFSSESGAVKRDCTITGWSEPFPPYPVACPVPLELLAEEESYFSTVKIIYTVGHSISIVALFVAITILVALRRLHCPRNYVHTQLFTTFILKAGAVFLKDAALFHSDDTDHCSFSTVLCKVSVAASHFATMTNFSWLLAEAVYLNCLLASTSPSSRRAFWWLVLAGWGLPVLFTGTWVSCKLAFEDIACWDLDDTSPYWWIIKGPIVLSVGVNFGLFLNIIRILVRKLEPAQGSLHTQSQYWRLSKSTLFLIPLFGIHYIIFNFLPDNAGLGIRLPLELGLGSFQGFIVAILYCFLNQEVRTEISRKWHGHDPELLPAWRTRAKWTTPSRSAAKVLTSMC


Molecular target: T1, human GRF receptor
Assay: cell-based or functional assay

Binder | EC50 (nM), alkaline phosphatase reporter gene assay | EMAX (%), alkaline phosphatase reporter gene assay | SNR (signal to noise ratio), alkaline phosphatase reporter gene assay | EC50 fold higher than TH9507, reporter gene assay
{Hexenoyl(3E)}-YA[βAsp]AIFTNSYRKVLGQLSARKLLQDIMSRQQGESNQERGARARL-NH2 [TH9507 beta-Asp3] | 4.24 nM | 116% |  | 
{Hexenoyl(3E)}-YADAIFT[βAsp]SYRKVLGQLSARKLLQDIMSRQQGESNQERGARARL-NH2 [TH9507 beta-Asp8] | 30 nM | 120% | 26.9 | 500 fold
{Hexenoyl(3E)}-YADAIFTNSYRKVLGQLSARKLLQDI[Met(O)]SRQQGESNQERGARARL-NH2 [N-Hex-hGRF[1-44]Met[O]27 amide] | 0.16 nM |  |  | 
{Hexenoyl(3E)}-YADAIFTDSYRKVLGQLSARKLLQDIMSRQQGESNQERGARARL-NH2 [TH9507 Asp8] | 0.08 nM | 114% | 25.3 | 

Results, then the binder that gave them:

EC50 (nM), alkaline phosphatase reporter gene assay | EMAX (%), alkaline phosphatase reporter gene assay | SNR (signal to noise ratio), alkaline phosphatase reporter gene assay | EC50 fold higher than TH9507, reporter gene assay | Binder
0.2 nM | 95.7% | 21.3 |  | {Hexenoyl(3E)}-YA[Asu′]AIFTNSYRKVLGQLSARKLLQDIMSRQQGESNQERGARARL-NH2 (reading uncertain) [TH9507 cyclic form at Asp^3]
0.06 nM |  |  |  | {Hexenoyl(3E)}-YADAIFTNSYRKVLGQLSARKLLQDIMSRQQGESNQERGARARL-NH2 [[trans-3-hexenoyl]hGHRH (1-44) amide]
